Reference: US8409833B2 (Hokko Chemical Industry Co., Ltd., priority 2003, dated 2013)

Assay: Reducing and oxidation activity of recombinant myo-inositol 2-dehydrogenase (BG10669 gene product)
Assay type: biochemical
Method: The myo-inositol 2-dehydrogenase reducing activity was measured as described below. 5 μl of a reaction solution (200 mM Tris buffer (pH 8.0), 2% of NADH, 1% of scyllo-inosose) was mixed with 5 μl of an enzyme solution, and the mixture was allowed to react at 36° C. for 30 min. Immediately after the reaction, 500 μl of water was added, and the absorbance at 340 nm was measured. From the blank value of a test tube prepared by using water instead of the enzyme solution, the decrease in the absorbance at 340 nm was measured. […] The reaction rate was calculated from the absorbance increments at the respective times.

B1: myo-inositol 2-dehydrogenase: recombinant myo-inositol 2-dehydrogenase, product of BG10669 gene derived from Bacillus subtilis 168 ATCC23857 (protein, UniProt P26935 1-344, looked up)
Inositol …: MSLRIGVIGTGAIGKEHINRITNKLSGAEIVAVTDVNQEAAQKVVEQYQLNATVYPNDDSLLADENVDAVLVTSWGPAHESSVLKAIKAQKYVFCEKPLATTAEGCMRIVEEEIKVGKRLVQVGFMRRYDSGYVQLKEALDNHVIGEPLMIHCAHRNPTVGDNYTTDMAVVDTLVHEIDVLHWLVNDDYESVQVIYPKKSKNALPHLKDPQIVVIETKGGIVINAEIYVNCKYGYDIQCEIVGEDGIIKLPEPSSISLRKEGRFSTDILMDWQRRFVAAYDVEIQDFIDSIQKKGEVSGPTAWDGYIAAVTTDACVKAQESGQKEKVELKEKPEFYQSFTTVQN
1% myo-inositol, NAD^+, pH 8.0, 25° C.
  oxidation activity on myo-inositol: have an activity to oxidize myo-inositol
1% scyllo-inositol, NAD^+, pH 8.0, 25° C.
  oxidation activity on scyllo-inositol: no activity to oxidize scyllo-inositol
NADH, pH 8.0, 36° C., 30 min
  reducing activity on scyllo-inosose: have an activity to reduce scyllo-inosose
